This note sets out measurements from patent US20230039165A1 (ENTHERA S R L, published 2023).

Broadly, the Kd is the concentration at which binding is half-saturated.

B1: M1 (antibody, V domains shown)
VH: QVQLQESGPGLVKPSETLSLTCTVSGGSISTYYWSWIRQPPGKGLEWIGYIYYSGSTNYNPSLKSRVTISVDTSKNQFSLKLSSVTAADTAVYYCARYDIVTGYPHYYYYVMDVWGQGTTVTVSS
VL: AIQMTQSPSSLSASVGDRVTITCRASRGIRNALGWYQQKPGTAPKLLIYAASSLQSGVPSRFSGSGSGTDFTLTISSLQPEDSATYYCLQDYNYPLTFGGGTKVEIK
notes: Only variable domains are tied to M1; also called anti-IGFBP3 mAb M1; Anti-IGFBP3 M1
B2: E14 (antibody, V domains shown)
VH: QVQLVQSGAEVKKPGASVKVSCKASGYTFSNYGISWVRQAPGQGLEWMGWINTYNGNTNYAQKLQGRVTMTTDTSTSTAYMALRGLRSDDTAVYYCARDRGYSSSPYYYYYGMDVWGQGTTVTVSS
VL: DIQMTQSPSSLSASIGDRVTITCRASQGISNYLAWFQQKPGKAPKSLIYAASSLQSGVPSKFSGSGSGTDFTLTISSLQPEDFATYYCQQYNSYPFTFGPGTKVDIK
notes: From Trianni Mouse hybridomas: chimeric mAb with human VH and VK and mouse constant domains; also called anti-IGFBP3 mAb E14
B3: E20 (antibody, V domains shown)
VH: B2 VH
VL: DIQMTQSPSSLSASVGDRVTITCRASQGIRNDLGWYQQKPGKAPKRLIYAASSLQSGVPSRFSGSGSGTEFTLTISSLQPEDFATYYCLQHNSYPYTFGQGTKLEIK
notes: From Trianni Mouse hybridomas: chimeric mAb with human VH and VK and mouse constant domains; also called anti-IGFBP3 mAb E20
B4: E24 (antibody, V domains shown)
VH: B2 VH with S30T, T53A, D73V, S75Y, A82E, G85S
VL: B1 VL with R18K, R27Q
notes: From Trianni Mouse hybridomas: chimeric mAb with human VH and VK and mouse constant domains; also called anti-IGFBP3 mAb E24
B5: E01 (antibody, V domains shown)
VH: QVQLVESGGGVVQPGRSLRLSCAASGFTFSSYGMHWVRQAPGKGLEWVAVISYDGSNKNYVDSVKGRFTISRDNSKNTLYLQMNSLRAEDTAVYYCARGGEYFYYYGLDVWGQGTTVTVSS
VL: EIVMTQSPATLSLSPGERATLSCRASQSVSSSSLSWYQQKPGQAPRLLIYGASTRATGIPARFSGSGSGTDFTLTISSLQPEDFAVYYCQQDYNLPLTFGGGTKVEIK
notes: From Trianni Mouse hybridomas: chimeric mAb with human VH and VK and mouse constant domains; also called anti-IGFBP3 mAb E01
B6: E19 (antibody, V domains shown)
VH: B5 VH
VL: AIQLTQSPSSLSASVGDRVTITCRAGQGISSALAWYQQKPGKAPKILIYDASSLESGVPSRFSGSGSGTDFTLTISSLQPEDFATYYCQQFNNYPSTFGQGTKLEIK
notes: From Trianni Mouse hybridomas: chimeric mAb with human VH and VK and mouse constant domains; also called anti-IGFBP3 mAb E19
B7: E02 (antibody, V domains shown)
VH: B2 VH
VL: B5 VL with S33H, P96T, L97I, G101Q, K104R, V105L
notes: From Trianni Mouse hybridomas: chimeric mAb with human VH and VK and mouse constant domains; also called anti-IGFBP3 mAb E02
B8: E08 (antibody, V domains shown)
VH: B2 VH
VL: B5 VL
notes: From Trianni Mouse hybridomas: chimeric mAb with human VH and VK and mouse constant domains; also called anti-IGFBP3 mAb E08
B9: Human Ecto-TMEM219 (receptor)
chain: THRTGLRSPDIPQDWVSFLRSFGQLTLCPRNGTVTGKWRGSHVVGLLTTLNFGDGPDRNKTRTFQATVLGSQMGLKGSSAGQLVLITARVTTERTAGTCLYFSAVPGILPSSQPPISCSEEGAGNATLSPRMGEECVSVWSHEGLVLTKLLTSEELALCGSR
notes: Produced in E. coli by Genescript; In the ELISA it was detected with anti 6x His tag HRP, so it probably carries a His tag; also called extracellular domain of the TMEM219 receptor

Residue numbers refer to the chain shown, from its start. Some results are limits rather than exact numbers.

The target of the first experiment is T1, Recombinant human IGFBP3 (human, UniProt P17936 28-291).
T1 construct: also called rhIGFBP3; hIGFBP3
T1 sequence (P17936 28-291 limits assumed): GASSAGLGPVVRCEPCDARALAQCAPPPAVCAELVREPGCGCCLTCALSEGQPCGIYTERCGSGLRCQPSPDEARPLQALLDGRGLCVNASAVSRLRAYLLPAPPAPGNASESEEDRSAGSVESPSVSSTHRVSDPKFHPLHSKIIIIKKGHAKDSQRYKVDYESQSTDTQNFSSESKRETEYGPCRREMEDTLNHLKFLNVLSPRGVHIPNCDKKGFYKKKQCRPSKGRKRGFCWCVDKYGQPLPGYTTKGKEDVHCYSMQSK
Kind of experiment: Octet BLI; mAb captured via Fc on anti-mouse/anti-human IgG Fc biosensor, human IGFBP3 at 150 nM.
Procedure: The binding affinity measurements were performed using an Octet instrument (Octet BMIA), which is a Biolayer Interferometry (BLI) platform based on Biomolecular Interaction Analysis.
Turning to B1, the Kd is greater than 1 pM.
For the molecule B2, the Kd was found to be 850 pM.
Regarding B3, the Kd is 850 pM.
For the molecule B4, the Kd is greater than 1 pM.
As for B5, the Kd stood at 1200 pM.
In the case of B6, the Kd was 690 pM.
B7: the Kd is greater than 1 pM.
Regarding B8, the Kd was determined as 610 pM.

The target in another experiment is T1, Recombinant human IGFBP3. The experiment in a line: ELISA: plate coated with rhIGFBP3 4 µg/ml, His-tagged ecto-TMEM219 10 µg/ml added, detection with anti-HisTag HRP, absorbance.
Procedure: We also employed a blocking reagent solution (3% BSA in PBS) and a diluent solution (0.5% BSA, 0.05% Tw in PBS).
Plate was incubated 90 minutes at 37° C. and washed with PBS (300 μl/well) and incubated with the blocking reagent (200 μl/well) 2 hours at room temperature. […] After washing steps, plate was then incubated at room temperature for 1 hour with anti 6× His tag HRP diluted 1:2000 in Diluent solution (50 μl/well). ELISA plate was then read after adding visualization solution at ELISAreader and adsorbance was measured.
In the case of B9, the binding result is “binds”.
